The results in this text go back to article PMC6945068.

In the assay the target is ^35S-labelled in vitro-translated Flag-B56γ (X. laevis PP2A regulatory B subunit B56γ). Kind of assay: pull-down (amylose beads) with autoradiography quantification. Conditions: 1 h, read off a plot.

Sequence of MBP-fused Apc1-loop^500 wild type (residues 515-584 of Xenopus tropicalis Apc1) (Q08D52 entry or part of it, stated change not applied): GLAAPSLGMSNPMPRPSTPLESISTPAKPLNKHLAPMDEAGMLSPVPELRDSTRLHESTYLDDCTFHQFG

Consider “MBP-fused Apc1-loop^500 wild type (residues 515-584 of Xenopus tropicalis Apc1) (from UniProt Q08D52) T532A; T539A; S558A”, for which the response is, setting by setting: (anaphase extract (Ana) supplemented with CycB∆167, 23°C, lane 16, parent: est. 3.3) 1.1 A.U; (interphase extract (Inter), 23°C, lane 12, parent: est. 0.95) 1.1 A.U.
